Measurements taken from doi:10.1101/2020.08.31.20184481.

Experiments:
R1003W GFP-βIISp (human) = R1003W GFP-βIISp (human) (UniProt Q01082); assay: pull-down
F-actin = F-actin (UniProt P68135); assay: co-sedimentation

Sequence of R1003W GFP-βIISp (human) (Q01082 whole entry R1003W): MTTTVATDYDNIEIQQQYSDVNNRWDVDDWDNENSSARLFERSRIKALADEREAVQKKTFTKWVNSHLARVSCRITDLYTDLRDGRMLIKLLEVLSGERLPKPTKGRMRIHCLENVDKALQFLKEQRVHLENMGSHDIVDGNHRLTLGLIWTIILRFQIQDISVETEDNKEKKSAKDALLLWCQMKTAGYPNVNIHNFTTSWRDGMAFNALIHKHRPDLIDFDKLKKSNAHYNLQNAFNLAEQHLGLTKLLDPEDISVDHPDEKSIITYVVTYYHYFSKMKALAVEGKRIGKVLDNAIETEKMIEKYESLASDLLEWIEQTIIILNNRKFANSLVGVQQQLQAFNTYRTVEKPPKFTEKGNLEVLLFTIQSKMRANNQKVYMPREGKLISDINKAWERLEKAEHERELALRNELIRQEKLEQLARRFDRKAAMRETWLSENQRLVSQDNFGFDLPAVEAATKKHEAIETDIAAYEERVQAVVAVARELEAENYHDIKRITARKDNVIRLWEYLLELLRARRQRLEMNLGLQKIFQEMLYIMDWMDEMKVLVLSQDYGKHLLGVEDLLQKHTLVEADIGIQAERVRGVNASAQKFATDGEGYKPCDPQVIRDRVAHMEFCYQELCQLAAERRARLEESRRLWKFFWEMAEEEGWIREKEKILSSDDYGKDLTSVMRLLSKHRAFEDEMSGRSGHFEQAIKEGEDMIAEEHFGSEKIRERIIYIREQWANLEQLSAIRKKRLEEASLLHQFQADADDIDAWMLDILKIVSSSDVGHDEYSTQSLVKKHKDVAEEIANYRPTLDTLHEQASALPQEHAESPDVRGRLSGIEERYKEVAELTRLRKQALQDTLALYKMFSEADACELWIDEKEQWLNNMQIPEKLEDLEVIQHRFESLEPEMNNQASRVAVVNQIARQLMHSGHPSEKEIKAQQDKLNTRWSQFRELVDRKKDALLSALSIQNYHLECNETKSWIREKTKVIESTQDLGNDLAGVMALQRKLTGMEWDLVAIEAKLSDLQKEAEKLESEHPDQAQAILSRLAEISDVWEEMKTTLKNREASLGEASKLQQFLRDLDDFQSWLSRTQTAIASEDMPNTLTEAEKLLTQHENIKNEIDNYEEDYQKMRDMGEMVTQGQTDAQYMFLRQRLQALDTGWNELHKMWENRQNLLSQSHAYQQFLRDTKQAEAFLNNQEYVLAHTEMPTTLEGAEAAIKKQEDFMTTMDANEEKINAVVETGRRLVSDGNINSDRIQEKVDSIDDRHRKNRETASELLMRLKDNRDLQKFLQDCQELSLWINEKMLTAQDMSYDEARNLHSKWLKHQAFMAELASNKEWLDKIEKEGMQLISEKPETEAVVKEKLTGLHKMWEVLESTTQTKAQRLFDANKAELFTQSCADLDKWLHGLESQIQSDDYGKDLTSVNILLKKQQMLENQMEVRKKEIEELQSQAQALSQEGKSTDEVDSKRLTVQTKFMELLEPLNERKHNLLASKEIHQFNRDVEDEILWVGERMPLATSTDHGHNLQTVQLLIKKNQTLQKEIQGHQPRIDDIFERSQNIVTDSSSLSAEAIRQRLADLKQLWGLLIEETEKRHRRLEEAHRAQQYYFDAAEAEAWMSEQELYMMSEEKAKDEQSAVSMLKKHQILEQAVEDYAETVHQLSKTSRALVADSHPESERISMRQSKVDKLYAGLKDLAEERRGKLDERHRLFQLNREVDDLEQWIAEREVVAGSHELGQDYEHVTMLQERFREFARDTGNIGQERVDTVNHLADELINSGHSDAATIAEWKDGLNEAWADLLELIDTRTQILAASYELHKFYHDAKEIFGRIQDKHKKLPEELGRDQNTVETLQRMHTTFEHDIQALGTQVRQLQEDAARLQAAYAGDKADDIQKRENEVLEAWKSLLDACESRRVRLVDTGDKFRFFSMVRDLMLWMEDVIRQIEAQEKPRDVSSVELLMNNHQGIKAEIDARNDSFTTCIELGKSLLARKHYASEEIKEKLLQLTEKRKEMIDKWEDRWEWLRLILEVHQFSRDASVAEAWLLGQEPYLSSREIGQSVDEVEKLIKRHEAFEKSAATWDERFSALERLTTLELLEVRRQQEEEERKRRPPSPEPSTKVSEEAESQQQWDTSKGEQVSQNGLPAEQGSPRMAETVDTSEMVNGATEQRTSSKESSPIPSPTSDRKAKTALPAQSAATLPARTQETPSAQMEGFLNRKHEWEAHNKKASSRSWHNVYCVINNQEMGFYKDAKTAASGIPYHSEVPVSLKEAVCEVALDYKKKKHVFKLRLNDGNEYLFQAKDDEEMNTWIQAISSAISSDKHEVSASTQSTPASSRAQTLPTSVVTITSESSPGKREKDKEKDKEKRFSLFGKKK

Row | percent less association with F-actin than WT (F-actin) | Substance | further results
1 | – | mCherry-tagged αII-spectrin, Q13813-2 1-2477 | percent reduction of association against WT GFP-βIISp (R1003W GFP-βIISp (human)): 40%
2 | 70% | purified full-length βII-spectrin p.I159_Q160del (from UniProt Q01082-1 1-2364) (natural protein) | –
3 | 40% | purified full-length βII-spectrin p.T59I (from UniProt Q01082-1 1-2364) (natural protein) | –
4 | – | purified full-length βII-spectrin p.A850G (from UniProt Q01082-1 1-2364) (natural protein) | percent higher F-actin binding than WT (F-actin): 50%
